Experimental data as given in patent US20250076311A1 (Chugai, published 2025).
Values belong to the binder of their own block, whether it stands above or below them.

Assays:
[1] = target: T1, cynomolgus monkey FcγRIIa3 extracellular domain with C-terminal His-tag (cynomolgus monkey); test: SPR (Biacore), antibody captured, FcgR analyte
T1 construct: also called cyno FcgRIIa3; cynoFcγRIIa3
T1 chain: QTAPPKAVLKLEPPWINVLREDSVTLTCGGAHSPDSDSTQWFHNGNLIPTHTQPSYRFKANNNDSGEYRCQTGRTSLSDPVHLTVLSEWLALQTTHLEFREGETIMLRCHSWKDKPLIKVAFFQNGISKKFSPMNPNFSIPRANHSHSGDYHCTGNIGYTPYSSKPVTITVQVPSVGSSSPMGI

[2] = target: T2, cynomolgus monkey FcγRIIa2 extracellular domain with C-terminal His-tag (cynomolgus monkey); test: SPR (Biacore), KD of SG1 / KD of variant
T2 construct: also called cyno FcgRIIa2; cynoFcγRIIa2
T2 chain: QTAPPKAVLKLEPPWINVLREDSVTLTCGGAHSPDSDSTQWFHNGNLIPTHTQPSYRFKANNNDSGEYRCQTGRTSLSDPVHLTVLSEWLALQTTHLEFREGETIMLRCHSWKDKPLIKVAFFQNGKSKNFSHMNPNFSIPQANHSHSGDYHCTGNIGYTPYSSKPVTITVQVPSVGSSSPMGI

[3] = target: T3, human FcγRIIb extracellular domain, His-tagged (human, UniProt P31994 43-217); test: SPR (BIACORE), antibody captured on chip, soluble FcgR as analyte, 25 C
T3 construct: also called human FcgRIIb; not shown: His-tag added to the C-terminus
T3 sequence: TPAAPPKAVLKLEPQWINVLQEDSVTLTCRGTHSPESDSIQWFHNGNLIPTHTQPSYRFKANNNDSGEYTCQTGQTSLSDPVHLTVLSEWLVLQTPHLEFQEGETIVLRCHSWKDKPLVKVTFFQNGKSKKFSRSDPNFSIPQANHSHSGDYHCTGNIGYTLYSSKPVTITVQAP
Protocol: (§1) The kinetic analysis of interactions between these antibodies and FcγR was carried out using BIACORE® T200 or BIACORE® 4000 (GE Healthcare). HBS-EP+ (GE Healthcare) was used as the running buffer, and the measurement temperature was set to 25° C. […] After the measurement, the antibody captured on the chip was washed off by allowing reaction with 10 mM glycine-HCl, pH1.5 and 25 mM NaOH so that the chip was regenerated and used repeatedly. The sensorgrams obtained as measurement results were analyzed by the 1:1 Langmuir binding model using the BIACORE® Evaluation Software to calculate the binding rate constant ka (L/mol/s) and dissociation rate constant kd (1/s), and the dissociation constant KD (mol/L) was calculated from these values. […] Regarding such interactions, KD values were calculated using the following 1:1 binding model described in BIACORE® T100 Software Handbook BR1006-48 Edition AE.

[4] = target: T4, cynomolgus monkey FcγRIIa3 extracellular domain, His-tagged (cynomolgus monkey); test: as above
T4 construct: also called cyno FcgRIIa3; cynoFcγRIIa3; not shown: His-tag added to the C-terminus
T4 chain: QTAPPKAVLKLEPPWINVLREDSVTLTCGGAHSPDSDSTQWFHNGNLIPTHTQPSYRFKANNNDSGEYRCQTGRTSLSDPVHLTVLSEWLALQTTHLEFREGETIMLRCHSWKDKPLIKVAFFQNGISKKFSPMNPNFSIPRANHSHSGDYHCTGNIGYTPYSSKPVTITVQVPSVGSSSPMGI
Protocol: as §1

[5] = target: T5, cynomolgus monkey FcγRIIa3 extracellular domain with C-terminal His-tag (cynomolgus monkey); test: SPR (BIACORE); KD of SG1 / KD of variant
T5 construct: also called cyno FcgRIIa3; cynoFcγRIIa3; not shown: His-tag added to the C-terminus
T5 chain: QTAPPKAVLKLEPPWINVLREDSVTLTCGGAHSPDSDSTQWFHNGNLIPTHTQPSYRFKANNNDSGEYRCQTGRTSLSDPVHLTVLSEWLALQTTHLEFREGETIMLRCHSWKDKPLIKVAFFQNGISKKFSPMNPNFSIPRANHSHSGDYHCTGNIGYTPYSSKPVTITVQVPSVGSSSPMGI

[6] = target: T6, human FcγRIIaH extracellular domain with C-terminal His-tag (human, UniProt P12318 34-217); test: SPR (BIACORE); KD of SG1 / KD of variant
T6 construct: also called human FcgRIIaH; FcγRIIa type H; not shown: His-tag added to the C-terminus
T6 sequence: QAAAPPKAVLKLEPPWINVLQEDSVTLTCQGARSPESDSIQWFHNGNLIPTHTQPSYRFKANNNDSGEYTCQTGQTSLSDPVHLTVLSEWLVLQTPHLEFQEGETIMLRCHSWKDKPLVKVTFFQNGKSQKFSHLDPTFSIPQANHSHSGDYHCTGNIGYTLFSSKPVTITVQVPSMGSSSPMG

[7] = target: T7, cynomolgus monkey FcγRIIIaS extracellular domain with C-terminal His-tag (cynomolgus monkey, UniProt A3RFZ7 21-206 (rhesus entry)); test: SPR (BIACORE); KD of SG1 / KD of variant
T7 construct: also called cyno FcgRIIIaS; cynoFcγRIIIaS; not shown: His-tag added to the C-terminus

[8] = target: T8, cynomolgus monkey FcγRIIa1 extracellular domain with C-terminal His-tag (cynomolgus monkey); test: SPR (BIACORE), antibody captured, FcgR analyte
T8 construct: also called cyno FcgRIIa1; cynoFcγRIIa1; not shown: His-tag added to the C-terminus
T8 chain: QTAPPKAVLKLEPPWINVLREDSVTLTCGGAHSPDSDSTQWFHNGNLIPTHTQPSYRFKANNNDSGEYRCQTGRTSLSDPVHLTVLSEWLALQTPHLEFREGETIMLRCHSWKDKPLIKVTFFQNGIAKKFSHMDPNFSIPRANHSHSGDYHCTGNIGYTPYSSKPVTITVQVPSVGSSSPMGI

[9] = target: T6, human FcγRIIaH extracellular domain …; test: SPR (BIACORE), antibody captured, FcgR analyte
[10] = target: T7, cynomolgus monkey FcγRIIIaS …; test: SPR (BIACORE), antibody captured, FcgR analyte

T7 sequence (A3RFZ7 21-206): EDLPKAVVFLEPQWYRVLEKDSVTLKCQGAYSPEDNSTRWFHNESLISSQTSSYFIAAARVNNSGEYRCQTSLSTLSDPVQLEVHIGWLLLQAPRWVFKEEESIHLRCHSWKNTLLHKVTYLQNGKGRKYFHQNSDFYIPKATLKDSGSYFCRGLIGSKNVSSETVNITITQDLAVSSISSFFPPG

Kd [1]: 1500 nM | KD fold (SG1 = 1) [2]: 5.6 fold
B1: M103205H795-MY447/M103202L889-SK1 (antibody, human IgG1, kappa)
heavy: QVTLKESGPVLVKPTETLTLTCTVSGIDLSHDDISWVRQAPGKGLEWVGIISYAGSTYYASWAKGRLTISKDTSKNQVVLTMTNMDPVDTATYYCARGVPAYSHGGDLWGQGTLVTVSSASTKGPSVFPLAPSSKSTSGGTAALGCLVKDYFPEPVTVSWNSGALTSGVHTFPAVLQSSGLYSLSSVVTVPSSSLGTQTYICNVNHKPSNTKVDKKVEPKSCDKTHTCPPCPAIELLTGPSVFLFPPKPKDTLMISRTPEVTCVVVDVSDEDPEVKFNWYVDGVEVHNAKTKPREEQYNSTYRVVSVLTVLHQDWLNGKEYKCKVSNKALPKPIEKTISKAKGQPREPQVYTLPPSREEMTKNQVSLTCLVKGFYPSDIAVEWESNGQPENNYKTTPPVLDSDGSFFLYSKLTVDKSRWQQGNVFSCSVMHEALHNHYTQKSLSLSP
light: DIVMTQSPATLSLSPGERATLSCTSSQSVYHANWLSWFQQKPGQPPKLLIYWASTLAYGVPSRFSGSGSGTDFTLTISSLQPEDAATYYCAGGYGGGRYAFGQGTKVEIKRTVAAPSVFIFPPSDEQLKSGTASVVCLLNNFYPREAKVQWKVDNALQSGNSQESVTEQDSKDSTYSLSSTLTLSKADYEKHKVYACEVTHQGLSSPVTKSFNRGEC
notes: Substitutions in EU numbering on SG1

Kd [3]: 2700 nM | Kd [4]: 43000 nM
B2: M103205H795-MY265/M103202L889-SK1 (antibody, human IgG1, kappa, name in EU numbering)
heavy: QVTLKESGPVLVKPTETLTLTCTVSGIDLSHDDISWVRQAPGKGLEWVGIISYAGSTYYASWAKGRLTISKDTSKNQVVLTMTNMDPVDTATYYCARGVPAYSHGGDLWGQGTLVTVSSASTKGPSVFPLAPSSKSTSGGTAALGCLVKDYFPEPVTVSWNSGALTSGVHTFPAVLQSSGLYSLSSVVTVPSSSLGTQTYICNVNHKPSNTKVDKKVEPKSCDKTHTCPPCPAPELLTGPSVFLFPPKPKDTLMISRTPEVTCVVVDVSDEDPEVKFNWYVDGVEVHNAKTKPREEQYNSTYRVVSVLTVLHQDWLNGKEYKCKVSNKALPKPIEKTISKAKGQPREPQVYTLPPSREEMTKNQVSLTCLVKGFYPSDIAVEWESNGQPENNYKTTPPVLDSDGSFFLYSKLTVDKSRWQQGNVFSCSVMHEALHNHYTQKSLSLSP
light: DIVMTQSPATLSLSPGERATLSCTSSQSVYHANWLSWFQQKPGQPPKLLIYWASTLAYGVPSRFSGSGSGTDFTLTISSLQPEDAATYYCAGGYGGGRYAFGQGTKVEIKRTVAAPSVFIFPPSDEQLKSGTASVVCLLNNFYPREAKVQWKVDNALQSGNSQESVTEQDSKDSTYSLSSTLTLSKADYEKHKVYACEVTHQGLSSPVTKSFNRGEC
notes: also called MS1032LO06-MY265

KD fold (SG1 = 1) [5]: 0.5 fold | KD fold (SG1 = 1) [6]: 0.6 fold | KD fold (SG1 = 1) [7]: 0.08 fold | Kd [8]: 2200 nM | Kd [9]: 1300 nM | Kd [10]: 4700 nM
B3: M103205H795-MY141/M103202L889-SK1 (antibody, human IgG1, kappa, name in EU numbering)
heavy: QVTLKESGPVLVKPTETLTLTCTVSGIDLSHDDISWVRQAPGKGLEWVGIISYAGSTYYASWAKGRLTISKDTSKNQVVLTMTNMDPVDTATYYCARGVPAYSHGGDLWGQGTLVTVSSASTKGPSVFPLAPSSKSTSGGTAALGCLVKDYFPEPVTVSWNSGALTSGVHTFPAVLQSSGLYSLSSVVTVPSSSLGTQTYICNVNHKPSNTKVDKKVEPKSCDKTHTCPPCPAPELLNGPSVFLFPPKPKDTLMISRTPEVTCVVVDVAHEDPEVKFNWYVDGVEVHNAKTKPREEQYNSTYRVVSVLTVLHQDWLNGKEYKCKVSNKALPAPIEKTISKAKGQPREPQVYTLPPSREEMTKNQVSLTCLVKGFYPSDIAVEWESNGQPENNYKTTPMVLDSDGSFFLYSKLTVDKSRWQQGNVFSCSVMHEALHNHYTQKSLSLSP
light: DIVMTQSPATLSLSPGERATLSCTSSQSVYHANWLSWFQQKPGQPPKLLIYWASTLAYGVPSRFSGSGSGTDFTLTISSLQPEDAATYYCAGGYGGGRYAFGQGTKVEIKRTVAAPSVFIFPPSDEQLKSGTASVVCLLNNFYPREAKVQWKVDNALQSGNSQESVTEQDSKDSTYSLSSTLTLSKADYEKHKVYACEVTHQGLSSPVTKSFNRGEC
notes: Fc variant of MS1032LO06-SG1; positions in EU numbering
